Test results published in patent US20260242478A1 (published 2026).
Where no end group is shown, it is not given here.

Legend:
[1] = target: T1, PSMA Fab (006 PSMA Fab) (biotinylated (site not stated)); assay: clonal phage ELISA on biotinylated PSMA Fab captured on neutravidin, anti-M13 HRP detection, competitor PSMA antigen
T1 construct: also called Anti-PSMA Fab

[2] = target: T1, PSMA Fab (006 PSMA Fab); assay: clonal phage ELISA on biotinylated PSMA Fab captured on neutravidin, anti-M13 HRP detection, no PSMA antigen
Procedure: (§1) Clonal phage were harvested as crude supernatants and screened via standard ELISAs. […] Prior to the addition of clonal phage. wells were incubated with blocking buffer and PSMA antigen or blocking buffer alone. Without washing or aspirating, clonal phage supernatants were then added to the wells and incubated for a short time. Wells were then washed followed by detection of bound phage using a horse radish conjugated anti-M13 antibody.

[3] = target: T2, 006 PSMA Fab (biotinylated (site not stated)); assay: clonal phage ELISA on captured PSMA Fab, wells pre-incubated with PSMA antigen as competitor
T2 construct: also called Anti-PSMA Fab

[4] = target: T2, 006 PSMA Fab; assay: clonal phage ELISA on biotinylated PSMA Fab captured on neutravidin, anti-M13-HRP detection;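 also: crude clonal phage supernatants added to wells preincubated with PSMA antigen in blocking buffer or with blocking buffer alone, brief binding period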
Procedure: as §1

[5] = target: T3, PSMA Fab (biotinylated (site not stated)); assay: phage ELISA, biotinylated anti-PSMA Fab on neutravidin plate, anti-M13 HRP detection
T3 construct: Biotinylated PSMA Fab captured on neutravidin coated plates in the phage ELISA; also called Anti-PSMA Fab; 006 PSMA Fab

[6] = target: T3, PSMA Fab; assay: phage ELISA, captured anti-PSMA Fab pre-incubated with PSMA antigen as competitor, anti-M13 HRP detection
Procedure: as §1

Binder	Phage binding ELISA signal, Anti-PSMA Fab with PSMA antigen [1]	Phage binding ELISA signal, Anti-PSMA Fab [2]	Phage binding ELISA signal, Anti-PSMA Fab in presence of PSMA [3]	Phage binding ELISA signal, Anti-PSMA Fab [4]	other results
WEQRCVPEWMCVGF [Phage-2960]	0.0987	2.26	–	–	–
ELILCQPRWMCEGF (Peptide-180 library clone, tested as clonal phage (peptide fused to pIII)) [Phage-2942]	–	–	0.0637	2.28	–
WEAMCQPLWMCTGF (cysteine pairing not given here; also: peptide displayed as fusion to phage pIII, Clonal phage of the peptide-180 optimisation library, tested as crude phage supernatant; not shown: bacteriophage pIII coat protein to which the peptide is fused for display) [Phage-2968]	–	–	–	–	Phage binding ELISA signal, Anti-PSMA Fab [5]: 2.26; Phage binding ELISA signal, Anti-PSMA Fab in presence of PSMA antigen [6]: 0.0968
YLQFCKPVWMCTGF [Phage-2956]	0.15	2.27	–	–	–
EQPLCTPQWMCWGF [Phage-2958]	0.0972	2.27	–	–	–
EMRMCTPPWMCWGF (Peptide-180 library clone, tested as clonal phage (peptide fused to pIII)) [Phage-2946]	–	–	0.112	2.28	–
SSPICKPMWMCTGF [Phage-2950]	0.0918	2.28	–	–	–
DVRMCKPSWMCIGL (Peptide-180 library clone, tested as clonal phage (peptide fused to pIII)) [Phage-2941]	–	–	0.0754	2.28	–
VDIQCKPLWMCIGM [Phage-2953]	0.0643	2.27	–	–	–
GDHLCRPSWMCVGF (Peptide-180 library clone, tested as clonal phage (peptide fused to pIII)) [Phage-2947]	–	–	0.0649	2.28	–
LFKMCQPSWMCDGF (cysteine pairing not given here; also: peptide displayed as fusion to phage pIII, Clonal phage of the peptide-180 optimisation library, tested as crude phage supernatant; not shown: bacteriophage pIII coat protein to which the peptide is fused for display) [Phage-2965]	–	–	–	–	Phage binding ELISA signal, Anti-PSMA Fab [5]: 2.26; Phage binding ELISA signal, Anti-PSMA Fab in presence of PSMA antigen [6]: 0.0804
PEFVCKPSWMCQGF [Phage-2959]	0.0681	2.26	–	–	–
IMPKCEPIWMCAGF (cysteine pairing not given here; also: peptide displayed as fusion to phage pIII) [Phage-2952]	0.0746	2.27	–	–	–
FPHMCKPEWMCAGF (cysteine pairing not given here; also: peptide displayed as fusion to phage pIII) [Phage-2948]	0.0876	2.28	–	–	–
PGPLCVPEWMCIGF (cysteine pairing not given here; also: peptide displayed as fusion to phage pIII, Clonal phage of the peptide-180 optimisation library, tested as crude phage supernatant; not shown: bacteriophage pIII coat protein to which the peptide is fused for display) [Phage-2964]	–	–	–	–	Phage binding ELISA signal, Anti-PSMA Fab [5]: 2.26; Phage binding ELISA signal, Anti-PSMA Fab in presence of PSMA antigen [6]: 0.114
LTPMCKPSWMCDGF (Peptide-180 library clone, tested as clonal phage (peptide fused to pIII)) [Phage-2944]	–	–	0.105	2.28	–

Binder	Phage binding ELISA signal, Anti-PSMA Fab with PSMA antigen [1]	Phage binding ELISA signal, Anti-PSMA Fab [2]	Phage binding ELISA signal, Anti-PSMA Fab in presence of PSMA [3]	Phage binding ELISA signal, Anti-PSMA Fab [4]	other results
FDKICVPTWMCTGF (Peptide-180 library clone, tested as clonal phage (peptide fused to pIII)) [Phage-2940]	–	–	0.107	2.28	–
EGIYCRPAWMCEGF (Peptide-180 library clone, tested as clonal phage (peptide fused to pIII)) [Phage-2943]	–	–	0.0765	2.28	–
QTPVCIPEWMCTGF (cysteine pairing not given here; also: peptide displayed as fusion to phage pIII, Clonal phage of the peptide-180 optimisation library, tested as crude phage supernatant; not shown: bacteriophage pIII coat protein to which the peptide is fused for display) [Phage-2966]	–	–	–	–	Phage binding ELISA signal, Anti-PSMA Fab [5]: 2.26; Phage binding ELISA signal, Anti-PSMA Fab in presence of PSMA antigen [6]: 0.091
TLMRCEPSWMCQGF [Phage-2954]	0.0698	2.27	–	–	–
NLPLCKPAWMCKWL (cysteine pairing not given here; also: peptide displayed as fusion to phage pIII, Clonal phage of the peptide-180 optimisation library, tested as crude phage supernatant; not shown: bacteriophage pIII coat protein to which the peptide is fused for display) [Phage-2963]	–	–	–	–	Phage binding ELISA signal, Anti-PSMA Fab [5]: 2.26; Phage binding ELISA signal, Anti-PSMA Fab in presence of PSMA antigen [6]: 0.125
ISALCVPDWMCYGF (Peptide-180 library clone, tested as clonal phage (peptide fused to pIII)) [Phage-2939]	–	–	0.696	2.28	–
ADPVCRPQWMCEGF [Phage-2961]	0.11	2.26	–	–	–
ENIMCEPMWMCIGF [Phage-2951]	0.0839	2.27	–	–	–
HVPKCVPQWMCIGF (Peptide-180 library clone, tested as clonal phage (peptide fused to pIII)) [Phage-2938]	–	–	0.202	2.29	–
GERYCVPAWMCAGL (cysteine pairing not given here; also: peptide displayed as fusion to phage pIII, Clonal phage of the peptide-180 optimisation library, tested as crude phage supernatant; not shown: bacteriophage pIII coat protein to which the peptide is fused for display) [Phage-2967]	–	–	–	–	Phage binding ELISA signal, Anti-PSMA Fab [5]: 2.26; Phage binding ELISA signal, Anti-PSMA Fab in presence of PSMA antigen [6]: 0.106
AYEMCIPAWMCEGF [Phage-2957]	0.0905	2.27	–	–	–
TTAYCIPPWMCSGF [Phage-2955]	0.15	2.27	–	–	–
WDHLCKPDWMCLGF [Phage-2949]	0.0766	2.28	–	–	–
TVIKCIPAWMCDGF (Peptide-180 library clone, tested as clonal phage (peptide fused to pIII)) [Phage-2945]	–	–	0.09	2.28	–
VQSLCVPYWMCTGF (cysteine pairing not given here; also: peptide displayed as fusion to phage pIII, Clonal phage of the peptide-180 optimisation library, tested as crude phage supernatant; not shown: bacteriophage pIII coat protein to which the peptide is fused for display) [Phage-2962]	–	–	–	–	Phage binding ELISA signal, Anti-PSMA Fab [5]: 2.26; Phage binding ELISA signal, Anti-PSMA Fab in presence of PSMA antigen [6]: 0.102
